According to PMC3393700, “Localization and Sub-Cellular Shuttling of HTLV-1 Tax with the miRNA Machinery” (PLoS ONE, 2012):

Experiments:
[1] = biological target: Tax deletion mutant TD1 (Δ1–37) (HTLV-1, UniProt P03409 38-353); experiment: cell-based or functional assay
[2] = biological target: Tax deletion mutant TD55 (Δ55–92) (HTLV-1, UniProt P03409 1-353, Δ55–92); experiment: cell-based or functional assay

B1: Drosha (endogenous, 293T cell lysate) (enzyme, human (endogenous in 293T), UniProt Q9NRR4 1-1374, looked up)
chain: MMQGNTCHRMSFHPGRGCPRGRGGHGARPSAPSFRPQNLRLLHPQQPPVQYQYEPPSAPSTTFSNSPAPNFLPPRPDFVPFPPPMPPSAQGPLPPCPIRPPFPNHQMRHPFPVPPCFPPMPPPMPCPNNPPVPGAPPGQGTFPFMMPPPSMPHPPPPPVMPQQVNYQYPPGYSHHNFPPPSFNSFQNNPSSFLPSANNSSSPHFRHLPPYPLPKAPSERRSPERLKHYDDHRHRDHSHGRGERHRSLDRRERGRSPDRRRQDSRYRSDYDRGRTPSRHRSYERSRERERERHRHRDNRRSPSLERSYKKEYKRSGRSYGLSVVPEPAGCTPELPGEIIKNTDSWAPPLEIVNHRSPSREKKRARWEEEKDRWSDNQSSGKDKNYTSIKEKEPEETMPDKNEEEEEELLKPVWIRCTHSENYYSSDPMDQVGDSTVVGTSRLRDLYDKFEEELGSRQEKAKAARPPWEPPKTKLDEDLESSSESECESDEDSTCSSSSDSEVFDVIAEIKRKKAHPDRLHDELWYNDPGQMNDGPLCKCSAKARRTGIRHSIYPGEEAIKPCRPMTNNAGRLFHYRITVSPPTNFLTDRPTVIEYDDHEYIFEGFSMFAHAPLTNIPLCKVIRFNIDYTIHFIEEMMPENFCVKGLELFSLFLFRDILELYDWNLKGPLFEDSPPCCPRFHFMPRFVRFLPDGGKEVLSMHQILLYLLRCSKALVPEEEIANMLQWEELEWQKYAEECKGMIVTNPGTKPSSVRIDQLDREQFNPDVITFPIIVHFGIRPAQLSYAGDPQYQKLWKSYVKLRHLLANSPKVKQTDKQKLAQREEALQKIRQKNTMRREVTVELSSQGFWKTGIRSDVCQHAMMLPVLTHHIRYHQCLMHLDKLIGYTFQDRCLLQLAMTHPSHHLNFGMNPDHARNSLSNCGIRQPKYGDRKVHHMHMRKKGINTLINIMSRLGQDDPTPSRINHNERLEFLGDAVVEFLTSVHLYYLFPSLEEGGLATYRTAIVQNQHLAMLAKKLELDRFMLYAHGPDLCRESDLRHAMANCFEALIGAVYLEGSLEEAKQLFGRLLFNDPDLREVWLNYPLHPLQLQEPNTDRQLIETSPVLQKLTEFEEAIGVIFTHVRLLARAFTLRTVGFNHLTLGHNQRMEFLGDSIMQLVATEYLFIHFPDHHEGHLTLLRSSLVNNRTQAKVAEELGMQEYAITNDKTKRPVALRTKTLADLLESFIAALYIDKDLEYVHTFMNVCFFPRLKEFILNQDWNDPKSQLQQCCLTLRTEGKEPDIPLYKTLQTVGPSHARTYTVAVYFKGERIGCGKGPSIQQAEMGAAMDALEKYNFPQMAHQKRFIERKYRQELKEMRWEREHQEREPDETEDIKK
miR326 expression (quantiMiR PCR, normalized to U6, relative to mock) in 293T cells transfected with the Tax mutant [1]: 1.5 fold | miR326 expression (quantiMiR PCR, normalized to U6, relative to mock) in 293T cells transfected with the Tax mutant [2]: 4 fold
